How the values were obtained:
[1] = target: LRID Fab fused to the transmembrane portion of glycophorin A, on SP2/0 cells (Fab-GlycoA); test: cell-based or functional assay
[2] = target: LRID Fab fused to the GPI signal sequence from decay accelerating factor, on SP2/0 cells (Fab-GPI); test: cell-based or functional assay
Sequence of LRID Fab fused to the GPI signal sequence from decay accelerating factor, on SP2/0 cells (Fab-GPI) (VH, as listed by the source limits assumed, chain 1 of 2): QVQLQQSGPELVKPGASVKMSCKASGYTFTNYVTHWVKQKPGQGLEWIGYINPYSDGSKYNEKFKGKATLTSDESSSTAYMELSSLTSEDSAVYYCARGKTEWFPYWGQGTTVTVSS
Sequence of LRID Fab fused to the GPI signal sequence from decay accelerating factor, on SP2/0 cells (Fab-GPI) (VL, as listed by the source limits assumed, chain 2 of 2): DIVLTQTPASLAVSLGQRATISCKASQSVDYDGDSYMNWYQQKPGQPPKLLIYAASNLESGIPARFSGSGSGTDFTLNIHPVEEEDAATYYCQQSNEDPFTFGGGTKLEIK

Sequence of LRID Fab fused to the transmembrane portion of glycophorin A, on SP2/0 cells (Fab-GlycoA) (VH, as listed by the source limits assumed, chain 1 of 2): as the sequence (VH, as listed by the source limits assumed, chain 1 of 2) above
Sequence of LRID Fab fused to the transmembrane portion of glycophorin A, on SP2/0 cells (Fab-GlycoA) (VL, as listed by the source limits assumed, chain 2 of 2): as the sequence (VL, as listed by the source limits assumed, chain 2 of 2) above

B1: SM03 (antibody, V domains shown)
VH: QVQLQESGGGLVKPGGSLKLSCAASGFAFSIYDMSWVRQTPEKRLEWVAYISSGGGTTYYPDTVKGRFTISRDNAKNTLYLQMSSLKSEDTAMYYCARHSGYGSSYGVLFAYWGQGTLVTVSS
VL: DIQLTQTTSSLSASLGDRVTISCRASQDISNYLNWYQQKPDGTVKLLIYYTSILHSGVPSRFSGSGSGTDYSLTISNLEQEDFATYFCQQGNTLPWTFGGGTKLEIKR
modifications: here or on the partner: Held on the SP2/0 cell surface by the glycophorin A transmembrane portion; this part is not in the letters.
**Q.** B1 was tested. Which CMC activities, maximum killing [1] did it give?
**A.** Its CMC activities, maximum killing is over 90%.

**Q.** And the CMC killing of surrogate target cells, EC50 [1]?
**A.** Its CMC killing of surrogate target cells, EC50 is 130 µg/mL.

**Q.** What about the CMC activities, maximum killing [2] of the same binder?
**A.** Its CMC activities, maximum killing is over 90%.

**Q.** And the CMC killing of surrogate target cells, EC50 [2]?
**A.** Its CMC killing of surrogate target cells, EC50 is 220 µg/mL.
